Consider two molecules from paper PMC6174002.

The target in data set [1] is T1, RpoN (sigma54) (Leptospira biflexa strain Patoc 1 …, UniProt B0SR56 1-473).
T1 sequence: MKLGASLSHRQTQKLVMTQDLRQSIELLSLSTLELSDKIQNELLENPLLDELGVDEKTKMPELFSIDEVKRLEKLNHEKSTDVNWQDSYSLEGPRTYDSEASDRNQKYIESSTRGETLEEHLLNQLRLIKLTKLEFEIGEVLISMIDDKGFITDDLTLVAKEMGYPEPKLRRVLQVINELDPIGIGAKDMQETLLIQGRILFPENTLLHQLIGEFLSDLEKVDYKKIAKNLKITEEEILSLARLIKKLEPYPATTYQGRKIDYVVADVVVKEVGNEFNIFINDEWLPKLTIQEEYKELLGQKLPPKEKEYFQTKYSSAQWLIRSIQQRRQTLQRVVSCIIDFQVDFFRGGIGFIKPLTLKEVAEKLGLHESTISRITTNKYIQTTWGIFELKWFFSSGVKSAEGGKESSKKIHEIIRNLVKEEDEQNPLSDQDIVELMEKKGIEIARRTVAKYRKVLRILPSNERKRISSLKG
Nature of the data set: EMSA.

The target in data set [2] is T1, RpoN (sigma54). Nature of the data set: competition.

B1: rcfA promoter -24/-12 probe (dsDNA)
DNA 1: TAAGCCCAATATGCTTTTGGCACGATAGTTGCATCTATTCTACTG
DNA 2: TTCAGTAGAATAGATGCAACTATCGTGCCAAAAGCATATTGGGCTT
As for B1, in the data set with RpoN (sigma54) [1], the binding result is reported as “binds”.

B2: rcfA promoter cold competitor (dsDNA)
DNA 1: TAAGCCCAATATGCTTTTGGCACGATAGTTGCATCTATTCTACTG
DNA 2: TTCAGTAGAATAGATGCAACTATCGTGCCAAAAGCATATTGGGCTT
Consider B2, for which the binding result with RpoN (sigma54) [2] is on record as “binds”.
